# US20160068813A1, “DIFFERENTIATION OF ADIPOSE STROMAL CELLS INTO OSTEOBLASTS AND USES THEREOF” (Artecel Sciences Inc., priority 1997, published 2016)
# Tested on: stromal cells isolated from adipose tissue
# Experiment: Effect of compounds on osteoblast differentiation of adipose stromal cells, measured by secreted osteocalcin
# Format: cell-based, human
# Details: differentiated as in Example 2 in presence and absence of compound; secreted osteocalcin assay; data not shown
# Method: Adipose stromal cells were isolated as described in Example 1 and then treated as follows to induce differentiation into osteoblasts. Stromal cells were plated in 24-well and/or 6-well tissue culture plates in stromal cell medium (see above) at a density of about 22,000 cells/cm^2. After 24 hours, the stromal cell medium was replaced with osteoblast differentiation medium (DMEM with 10% fetal bovine serum (v/v); 10 mM β-glycerophosphate; 50 μg/ml ascorbate-2-phosphate; 60 U/ml penicillin; 60 U/ml streptomycin; 15 μg/ml amphotericin B). The osteoblast differentiation medium was replaced with fresh medium every 3 days for 3 weeks. When changing the media, one ml of conditioned media was collected and stored at −80° C. for later analysis of secreted factors. […]
# Biochemical changes indicative of osteoblast differentiation were also assessed. Osteocalcin is an osteoblast-specific secreted protein that can be measured by ELISA (Intact Human Osteocalcin K EIA kit, catalog number BT-460, Biomedical Technologies, Inc., Stoughton, Mass.). […]
# Cultures of stromal cells isolated from adipose tissue according to the method described in Example 1 were used to study the effect compounds of interest on osteoblast differentiation. […] Differentiation was measured by assays for secreted osteocalcin. […]
molecule,measurement,value
"bone morphogenetic protein 4: bone morphogenetic protein, known osteoblast differentiation promoting agent (protein, UniProt P12644 293-408, looked up) Bone morphogenetic protein 4: SPKHHSQRARKKNKNCRRHSLYVDFSDVGWNDWIVAPPGYQAFYCHGDCPFPLADHLNSTNHAIVQTLVNSVNSSIPKACCVPTELSAISMLYLDEYDKVVLKNYQEMVVEGCGCR",effect on osteoblast differentiation,positively affect osteoblast differentiation
